Assay type in all cases: cell-based
One test addresses T1, PD-1/PD-L1 interaction (Homo sapiens, UniProt Q15116+Q9NZQ7).
T1 construct: host or cells: PD-1 effector cells; PD-L1 aAPC/CHO-K1 cells
Briefly: PD-1/PD-L1 Blockade Bioassay (Promega). As to conditions: increasing peptide concentrations; listed as RLS-0118. As to the method:
PD-1 effector cells were incubated with PD1-L1 aAPC cells in the absence or presence of increasing concentrations of anti-PD-1 antibody (positive control) and select PIC1 peptides. Luminescence was detected in luminometer plate reader.
To assess if PIC1 peptides could block PD-1 inhibitory activity in a cell-based assay, select peptides were screened in the PD-1/PD-L1 Blockade Bioassay (Promega). The PD-1/PD-L1 Blockade Bioassay is a biologically relevant MOA-based assay that can be used to measure the potency and stability of antibodies and other biologics designed to block the PD-1/PD-L1 interaction. This bioluminescent cell-based assay is used to measure the potency and stability of molecules targeting PD-1 and consists of two genetically engineered cell lines: aAPC/CHO-K1 Cells are CHO-K1 cells with an engineered cell surface protein designed to activate cognate TCRs in an antigen-independent manner. When the two cell types are co-cultured, the PD-1/PD-L1 interaction inhibits TCR signaling and NFAT-mediated luciferase activity. Addition of an inhibitory molecule that blocks either PD-1 or PD-L1 releases the inhibitory signal and results in TCR signaling and NFAT-mediated luciferase activity.

Test [1] relates to purified human Pan T-cells. The test can be described thus: T-cell exhaustion protocol (Dynabeads re-stimulation). The settings on record: peptides 2 mg/ml at each stimulation; supernatant ELISA. As to the method: Purified human pan-T-cells were subject to stimulation with Dynabeads every 48 hours over the period of 8 days with cells also receiving PIC1 peptides (2 mg/ml) at each stimulation. Cells not receiving Dynabeads were run in parallel to assess background levels of Caspase 3/7 signal. At the eighth day, cells were harvested and the levels of Caspase 3/7 determined by ELISA.
Purified human pan-T-cells were subject to stimulation with Dynabeads every 48 hours over the period of 8 days with cells also receiving PIC1 peptides (2 mg/ml) at each stimulation. Cell supernatants were collected at each stimulation and levels of IL-2 and IFN-gamma assayed by ELISA.
T-cell exhaustion is a form of T-cell dysfunction that occurs in cancer. It is defined by poor effector function, reduction in cytokine release (e.g., IL-2, TNF-alpha, IFN-gamma), sustained expression of inhibitory receptors (e.g., PD-1, LAG-3, CD244, CD160) with the progressive loss of effector function due to overstimulation. Exhaustion prevents optimal control of tumor growth. Exhausted T cells are prevalent in the tumor microenvironment (TME) and can lead to T-cell apoptosis. T-cell exhaustion is reversible, and pharmaceutical inhibition of T-cell exhaustion has been considered a promising strategy by many cancer researchers. To ascertain if PIC1 peptides could reverse T-cell exhaustion and increase T cell viability and effector function, a T-cell exhaustion protocol was developed. To induce T-cell exhaustion, purified human Pan T-cells were stimulated with T-Activator CD3/CD28 Dynabeads and cells are washed and re-stimulated every 48 hours. PIC1 peptides were added to the cells after each stimulation with Dynabeads. After three to four stimulations cells were harvested for readouts which consisted of assessing T-cell apoptosis by measuring Caspase 3/7 levels and production of cytokines IL-2 and IFN-gamma which is indicative of T-cell functionality. […] To further evaluate if PIC1 peptides could restore T-cell functionality in cells that have undergone the exhaustion protocol, the inventors next assessed production of cytokines IL-2 and IFN-gamma. Supernatants from the cells after each stimulation were collected and the cytokines measured by ELISA. […] The lower level of IFN-gamma signal compared to IL-2 was consistently seen in this assay.

Test [2] concerns human umbilical endothelial vein cells (HUVECs). The test can be described thus: LPS-induced (non-VEGF mediated) angiogenesis in HUVECs. The settings on record: peptides 10 mg/ml, LPS 10 ug/ml, overnight. As to the method: HUVEC cells were incubated with the indicated PIC1 peptides followed by LPS addition and plating onto extracellular matrix. After overnight incubation, evidence of angiogenesis was determined by fluorescence microscopy. Cells receiving LPS and not receiving LPS served as positive and negative controls for angiogenesis.
While VEGF-plays a major role in angiogenesis in cancer, other non-VEGF factors can induce angiogenesis to promote tumor growth. Currently there are no drugs on the market to inhibit non-VEGF mediated angiogenesis. To assess whether the PIC1 peptides could inhibit non-VEGF mediated angiogenesis, the inventors developed a model of angiogenesis using human umbilical endothelial vein cells (HUVECs) in which addition of lipopolysaccharide (LPS) induces angiogenesis. HUVECs were first incubated with Cell Trace Violet dye, followed by addition of PIC1 peptides (10 mg/ml) for 1 hour at 37° C. and then treated with 10 ug/ml of LPS and placement on an extracellular matrix to promote angiogenesis. Cells were incubated overnight at 37° C. in a humidified CO2 incubator. Cells were then visualized for tube formation indicative of angiogenesis by fluorescence microscopy.

The next test deals with T2, CTLA-4 (Homo sapiens, UniProt P16410).
T2 sequence (P16410 36-223): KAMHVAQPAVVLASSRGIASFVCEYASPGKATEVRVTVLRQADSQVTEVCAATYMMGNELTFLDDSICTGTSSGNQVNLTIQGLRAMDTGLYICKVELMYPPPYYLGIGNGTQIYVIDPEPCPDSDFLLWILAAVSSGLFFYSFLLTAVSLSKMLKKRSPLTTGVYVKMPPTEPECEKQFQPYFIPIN
The test can be described thus: CTLA-4 Blockade Bioassay (Promega). On the set-up: host or cells: Jurkat T cells (CTLA-4 effector cells); aAPC/Raji cells. The settings on record: increasing concentrations. As to the method: CTLA-4 effector cells were incubated with aAPC/Raji Cells in the absence or presence of increasing concentrations of anti-CTLA-4 antibody (positive control), RLS-0127*, RLS-0130, RLS-0156, RLS-0170 and RLS-0174. Luminescence was detected in luminometer plate reader.
To assess if PIC1 peptides could block CTLA-4 inhibitory activity in a cell-based assay, select peptides were screened in the CTLA-4 Blockade Bioassay (Promega). This bioluminescent cell-based assay is used to measure the potency and stability of molecules targeting CTLA-4 and consists of two genetically engineered cell lines: CTLA-4 effector cells: Jurkat T cells expressing human CTLA-4 and a luciferase reporter driven by a native promoter which responds to TCR/CD28 activation and aAPC/Raji Cells: Raji cells expressing an engineered cell surface protein designed to activate cognate TCRs in an antigen-independent manner and endogenously expressing CTLA-4 ligands CD80 and CD86. When the two cell types are co-cultured, CTLA-4 competes with CD28 for their shared ligands, CD80 and CD86 and thus inhibits CD28 pathway activation and promoter-mediated luminescence. Addition of a molecule that blocks the interaction of CTLA-4 with its ligands CD80 and CD86 results in promoter-mediated luminescence.

“Also recorded” adds a separate entry of the source. Bridge positions count the residues as written; N and C are the ends. Square brackets hold non-standard residues; d marks the D form. Ends that are not written are not given here. S5 = C=CCCC[C@](C)(N)C(=O)O; Sar = CNCC(=O)O

T1 sequence (Q15116 25-288): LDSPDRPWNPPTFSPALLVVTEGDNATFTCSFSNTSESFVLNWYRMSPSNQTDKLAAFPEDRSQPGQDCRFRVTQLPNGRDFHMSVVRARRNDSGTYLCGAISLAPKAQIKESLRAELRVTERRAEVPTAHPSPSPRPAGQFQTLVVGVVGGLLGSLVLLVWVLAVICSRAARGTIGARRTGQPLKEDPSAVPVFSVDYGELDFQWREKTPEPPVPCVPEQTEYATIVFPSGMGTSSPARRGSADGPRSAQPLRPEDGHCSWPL
T1 sequence (Q9NZQ7 19-290): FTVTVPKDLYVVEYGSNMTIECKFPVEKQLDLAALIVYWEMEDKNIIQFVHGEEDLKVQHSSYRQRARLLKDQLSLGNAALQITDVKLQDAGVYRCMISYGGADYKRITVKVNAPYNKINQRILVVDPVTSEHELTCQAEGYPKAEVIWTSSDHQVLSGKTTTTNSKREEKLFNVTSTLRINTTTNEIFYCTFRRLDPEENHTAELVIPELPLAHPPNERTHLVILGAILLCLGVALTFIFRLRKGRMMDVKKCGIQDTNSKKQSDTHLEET

For the substance “IALILEP(Sar)S5CQES5AA (IALILEP[Sar][S5]CQE[S5]AA; staple 9-13) [PA-0118]”, in the test with PD-1/PD-L1 interaction, the “inhibition of PD-1/PD-L1 inhibitory signaling (luminescence)” value is on record as “increase in luminescence indicative of inhibition of PD-1/PD-L1 inhibitory signaling; also recorded: able to inhibit PD-1/PD-L1 mediated cell signaling”. Besides, in test [1], the “IL-2 signal at stimulation 2” value was “did not”. Moreover, the “inhibition of LPS-induced angiogenesis (tube formation)” value in test [2] was “no signs of angiogenesis”. For the same substance, the “inhibitory activity in CTLA-4 blockade bioassay (luminescence)” value with CTLA-4 was “did not”.

The record behind these values is US20230272012A1, “PEPTIDES AND METHODS OF USE” (REALTA LIFE SCIENCES, INC., priority 2020, published 2023).
